Results published in doi:10.1101/2024.04.28.591520.

Molecular target: T1, Mycobacterium tuberculosis polyketide synthase 13 (Mycobacterium tuberculosis), I6X8D2
T1 chain: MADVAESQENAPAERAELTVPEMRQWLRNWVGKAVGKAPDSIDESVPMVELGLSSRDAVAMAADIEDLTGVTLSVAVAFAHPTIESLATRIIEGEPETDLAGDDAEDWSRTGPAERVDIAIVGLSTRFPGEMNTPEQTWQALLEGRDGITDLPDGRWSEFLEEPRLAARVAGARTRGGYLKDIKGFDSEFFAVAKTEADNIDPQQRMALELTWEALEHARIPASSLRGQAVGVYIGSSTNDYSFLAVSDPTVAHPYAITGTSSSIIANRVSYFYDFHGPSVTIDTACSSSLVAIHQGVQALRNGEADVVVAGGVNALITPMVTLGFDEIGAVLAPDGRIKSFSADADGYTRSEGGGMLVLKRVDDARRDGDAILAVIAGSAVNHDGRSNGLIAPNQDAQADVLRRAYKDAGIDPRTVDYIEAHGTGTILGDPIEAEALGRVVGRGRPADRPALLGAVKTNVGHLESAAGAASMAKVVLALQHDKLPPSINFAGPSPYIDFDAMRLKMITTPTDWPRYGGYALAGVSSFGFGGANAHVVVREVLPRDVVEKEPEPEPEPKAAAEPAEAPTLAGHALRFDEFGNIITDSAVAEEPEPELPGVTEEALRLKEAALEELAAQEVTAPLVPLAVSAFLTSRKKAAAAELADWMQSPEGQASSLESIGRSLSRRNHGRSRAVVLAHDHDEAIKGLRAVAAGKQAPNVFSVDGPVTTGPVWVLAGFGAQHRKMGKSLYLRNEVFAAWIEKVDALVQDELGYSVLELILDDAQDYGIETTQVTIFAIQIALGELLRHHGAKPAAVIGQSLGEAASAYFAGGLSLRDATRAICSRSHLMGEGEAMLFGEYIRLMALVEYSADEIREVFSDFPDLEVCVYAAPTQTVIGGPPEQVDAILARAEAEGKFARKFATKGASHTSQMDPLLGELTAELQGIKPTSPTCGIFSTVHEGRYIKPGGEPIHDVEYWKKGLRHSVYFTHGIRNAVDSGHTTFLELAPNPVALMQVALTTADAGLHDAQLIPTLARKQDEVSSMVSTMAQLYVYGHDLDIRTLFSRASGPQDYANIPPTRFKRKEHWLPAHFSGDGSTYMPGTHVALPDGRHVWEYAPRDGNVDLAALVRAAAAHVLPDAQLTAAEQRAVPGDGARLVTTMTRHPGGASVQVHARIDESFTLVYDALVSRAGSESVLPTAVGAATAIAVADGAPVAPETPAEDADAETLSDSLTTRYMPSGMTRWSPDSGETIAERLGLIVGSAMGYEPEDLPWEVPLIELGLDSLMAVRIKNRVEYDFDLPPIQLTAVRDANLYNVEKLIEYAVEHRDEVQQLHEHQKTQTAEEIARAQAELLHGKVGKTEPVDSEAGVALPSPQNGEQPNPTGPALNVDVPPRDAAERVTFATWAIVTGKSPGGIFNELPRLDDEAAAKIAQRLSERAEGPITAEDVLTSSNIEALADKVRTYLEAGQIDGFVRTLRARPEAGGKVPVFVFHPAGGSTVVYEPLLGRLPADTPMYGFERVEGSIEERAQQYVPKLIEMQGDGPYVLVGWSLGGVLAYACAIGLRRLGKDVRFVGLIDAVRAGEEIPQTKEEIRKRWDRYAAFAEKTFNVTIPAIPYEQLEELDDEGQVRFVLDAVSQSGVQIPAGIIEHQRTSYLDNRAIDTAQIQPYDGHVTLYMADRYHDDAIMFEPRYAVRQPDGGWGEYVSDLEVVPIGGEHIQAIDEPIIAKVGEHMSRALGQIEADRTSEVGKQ
Assay: AUC
Details: remark: other sources report otherwise

B1: Mycobacterium tuberculosis polyketide synthase 13, I6X8D2 1-1733 (enzyme)
chain: T1 chain
With B1 the stoichiometry N was 2.
